We go through 1 protein from paper PMC6328559, “Structure of the SLy1 SAM homodimer reveals a new interface for SAM domain self-association” (Scientific Reports, 2019).

Data set [1] concerns the molecule itself. In words: MST; Alexa Fluor 488 labelled protein kept constant (SAMwt 70 nM, SAMlg 60 nM), total protein varied (SAMwt 1.1-824 µM, SAMlg 0.2-250 µM); standard buffer pH 6.4, room temperature; fit to a monomer-dimer equilibrium; dimer to monomers.
Data set [2] deals with the molecule itself. Description: AUC; sedimentation equilibrium, 30 °C, standard buffer (50 mM potassium phosphate, 20 mM NaCl, 0.1 mM EDTA, pH 6.4) without NaN3; three loading concentrations (SAMwt 60, 120, 300 µM; SAMlg 31, 64, 98 µM) at several speeds; global fit to a monomer-dimer equilibrium; dimer to monomers.

B1: SLy1 SAM domain construct SAMlg (SLy1 residues G249-E321 preceded by a glycine-proline tag) (domain or fragment, mouse)
chain: GPGKRPKPKTLHELLERIGLEEHTSTLLLNGYQTLEDFKELRETHLNELNIMDPQHRAKLLTAAELLLDYDTGSE
notes: glycine-proline left from the tag after PreScission cleavage; SLy1 (SASH3), murine, UniProtKB Q8K352, residues 249-321; 75 residues; In MST 60 nM of the protein carried amine-reactive Alexa Fluor 488; For DOSY the protein was 15N labelled; also called N-terminally extended SLy1 SAM domain construct; source: E. coli BL21(DE3), GST fusion, purified (Glutathione Sepharose, PreScission cleavage, …)
B1 displayed an equilibrium dissociation constant (Kd) in data set [1] of 5.4 ± 1.4 µM. In data set [2], the affinity, expressed as Kd, was 2200 nM and the “stoichiometry N” value was determined as 2.
